Fold lower binding than G1 data for one substance are collected here from article PMC4209800.

For experiment [1], the target named is human FcγRIIIa of allotype 158F, GPI-anchored (human) (UniProt P08637). The experiment is described as follows: flow cytometry on cells; IgG pre-complexed with equimolar goat F(ab')2 against its light chain (anti-κ for Fog-1, anti-λ for B2), on CHO cells expressing a single human FcγRII or FcγRIII; complexes detected with FITC anti-goat IgG; mean fluorescence of ≥12 000 cells. (A flow cytometer gives signals particle by particle.)
UniProt P08637, sequence (P08637 17-254): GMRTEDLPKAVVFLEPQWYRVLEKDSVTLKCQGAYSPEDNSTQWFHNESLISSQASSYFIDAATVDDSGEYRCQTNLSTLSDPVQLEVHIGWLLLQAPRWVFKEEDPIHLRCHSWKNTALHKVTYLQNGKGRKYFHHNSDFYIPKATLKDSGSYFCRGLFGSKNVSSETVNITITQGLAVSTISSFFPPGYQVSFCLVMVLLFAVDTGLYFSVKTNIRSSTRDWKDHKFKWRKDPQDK

In experiment [2] the target is human FcγRIIIa of allotype 158V, GPI-anchored (human). The description is as above.

B2 G1Δnab (antibody): the figures for the fold lower binding than G1 in experiment [1] and in experiment [2] were 100 fold and 50 fold, respectively.
